According to patent publication US20110250211A1 (INSTITUT PASTEUR, published 2011):
Where a chain is given by its changes, count along the chain named. Each block holds one binder with its values, some of them ahead of it.

Tests used:
[1] = biological target: T1, murine glial fibrillary acidic protein (GFAP) (mouse, UniProt P03995 1-430); test: immunohistochemistry on fixed, permeabilized brain sections
T1 construct: Endogenous protein of brain extracts, brain sections or live brain; also called GFAP in murine brain extracts; GFAP in mouse astrocytes
T1 sequence (P03995 whole entry): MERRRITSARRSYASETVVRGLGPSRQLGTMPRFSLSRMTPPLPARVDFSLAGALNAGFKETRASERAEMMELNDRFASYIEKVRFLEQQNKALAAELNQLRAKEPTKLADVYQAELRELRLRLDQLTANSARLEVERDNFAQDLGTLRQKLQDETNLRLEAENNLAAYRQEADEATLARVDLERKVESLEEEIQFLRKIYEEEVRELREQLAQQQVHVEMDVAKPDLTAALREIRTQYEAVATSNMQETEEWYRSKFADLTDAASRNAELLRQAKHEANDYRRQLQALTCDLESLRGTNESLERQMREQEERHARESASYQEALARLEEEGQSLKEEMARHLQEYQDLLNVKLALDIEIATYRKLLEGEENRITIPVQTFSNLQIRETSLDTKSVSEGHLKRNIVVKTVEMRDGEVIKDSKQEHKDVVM

[2] = biological target: T2, human glial fibrillary acidic protein (GFAP) (human, UniProt P14136 1-432); test: immunohistochemistry on human brain paraffin sections
T2 construct: the endogenous protein in fixed human brain sections in the immunolabelling experiments; also called hGFAP
T2 sequence (P14136 whole entry): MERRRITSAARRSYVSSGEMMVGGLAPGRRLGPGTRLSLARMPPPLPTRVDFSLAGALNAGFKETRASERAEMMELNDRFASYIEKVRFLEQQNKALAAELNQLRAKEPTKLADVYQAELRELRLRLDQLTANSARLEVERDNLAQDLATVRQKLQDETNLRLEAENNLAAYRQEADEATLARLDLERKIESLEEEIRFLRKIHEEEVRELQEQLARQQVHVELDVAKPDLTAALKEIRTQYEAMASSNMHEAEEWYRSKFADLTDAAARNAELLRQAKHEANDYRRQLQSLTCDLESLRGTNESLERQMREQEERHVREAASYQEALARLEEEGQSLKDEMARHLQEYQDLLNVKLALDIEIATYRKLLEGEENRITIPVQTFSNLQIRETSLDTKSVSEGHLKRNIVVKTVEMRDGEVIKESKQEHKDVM
Experimental: Immunostaining of human brain tissue was performed on 5 μm thick paraffin sections. Sections were de-paraffinized in xylene, rehydrated through ethanol (100%, 96%, and 90%) and finally brought to water. They were incubated with 3% hydrogen peroxyde and 20% methanol, to quench for endogenous peroxydases, and washed in water. Non-specific binding was blocked by incubating the sections for 10 minutes in 2% bovine serum albumin in TBS plus 0.5% Tween.
The distribution of VHH-specific immunoreactivity in mouse and human brains sections were examined after aldehyde fixation and membranes permeabilization, using standard procedure for immunostaining. Immunohistochemistry experiments were performed with VHH-A10 (SEQ ID NO: 5) or VHH domain of SEQ ID NO: 3 fused in frame with the Ig CH2 domain and the His tag (SEQ ID NO: 29) were both used. With this construction, the signal could be amplified by using rabbit anti-alpaca Ig polyclonal antibodies as secondary antibodies, in turn labelled by an anti-rabbit goat polyclonal antibody. As previously reported (LAFAYE et al, 1995, above-cited), the results obtained were similar with the His-tagged antibody.

[3] = biological target: T2, human glial fibrillary acidic protein …; test: equilibrium competition ELISA in solution (Friguet et al.)
Experimental: (§1) The binding affinity of VHHs was determined as described by FRIGUET et al. (1985, J Immunol Methods, 77:305-319). Briefly, various concentrations of GFAP were incubated in solution overnight at 4° C. with a known quantity of VHH until equilibrium was reached. The VHH concentration had been determined by preliminary ELISA calibrations. 100 μl of solution was transferred to a well of a microtiter plate previously coated with GFAP and was incubated for 20 min at 4° C. The plates were washed with PBS-Tween 0.1%. VHHs were detected with rabbit anti-His tag antibodies (eBiosciences, San Diego, Calif.) followed by adding β-galactosidase-conjugated goat anti-rabbit Igs (Biosys, Compiegne, France) and 4-methylumbelliferyl β-D galactoside (Sigma Aldrich, Saint-Quentin Fallavier, France). Fluorescence was read at 460 nm, after excitation at 355 nm. KD was estimated from the slope of the regression curve obtained by plotting the reciprocal of the fraction of bound antibody versus the reciprocal of the molar concentration of antigen.

[4] = biological target: T1, murine glial fibrillary acidic protein …; test: Western blot of murine brain extracts
Experimental: Murine brain extracts were electrophoresed, immunoblotted and incubated with the VHH domains VHH-A10, -B8, -E3 and -E9.
Murine brain proteins (300 mg) were extracted in a potter with 600 μl of NuPage LDS sample buffer (Invitrogen) and kept for […] at 70° C. An aliquot was diluted 1:10 (v/v) with the same sample buffer then treated at 70° C. for 10 min. Following separation by polyacrylamide gel electrophoresis (PAGE) using NuPAGE Novex 4-12% Bis-tris gel (Invitrogen), semi-dry transfer onto Hybond-C (Amersham) and western blotting were carried out using the Xcell II blot module (Invitrogen). Prior to the immunochemical reaction, membranes were blocked in a 4% skimmed milk solution. […] Finally, peroxidase activity was visualized using a chemiluminescent kit (Amersham).

[5] = biological target: T2, human glial fibrillary acidic protein …; test: equilibrium competition ELISA in solution (Friguet et al.), GFAP-coated plate
Experimental: as §1

[6] = biological target: T2, human glial fibrillary acidic protein …; test: competition ELISA (Friguet) after heating 15 min at 75 C and cooling 20 min at 4 C
Experimental: as §1
The heat denaturation of VHH-E9 was adapted to the method described in OLICHON et al. (2007, BMC Biotechnol., 7:7). VHHs are re-suspended in PBS/NaCl 300 mM and are heated for 15 minutes at 75° C. then cooled down at 4° C. for 20 minutes. The binding affinity of VHHs was determined by ELISA as described in Example 1 above.

[7] = biological target: T2, human glial fibrillary acidic protein …; test: competition ELISA (Friguet) as in Example 1
Experimental: as §1

B2: VHH-B8 (VHH)
VHH: DVQLQVSGGGSVQPGGSLRLSCAAPGFTFSNYAMYWLRQAPGKGIEWVSRIGPGGSHTEYADSVKGRFAISRDNAKNTLSLQMNSLKPEDTAAYYCAITQQGSGRGRGTQVTVSSAAASLSTELEFGSELIPISMADVQLQVSGGGSVQPGGSLRLSCAASGFTFSNYAMYWLRQAPGKGIEWVSRIGPGGSHTEYADSVKGRFTISRDNAKNTLSLQMNSLKPEDTAVYYCAITQQGSGRGRGTQVTVSSAAALEHHHHHH
notes: One polypeptide entry
Kd [3]: 5.2 nM | binding result [4]: binds

B3: VHH-E9 (VHH)
VHH: DVQLQVSGGGSVQPGGSLRLSCAASGFTFSNYAMYWLRQAPGKGIEWVSRIGPGGSHTEYADSVKGRFTISRDNAKNTLSLQMNSLKPEDTAVYYCAITQQGSGRGQGTQVTVSS
notes: Alpaca VHH with C-terminal His tag; also called anti-GFAP VHH-E9; native VHH-E9
Kd [5]: 5.6 nM | binding result [4]: binds | Kd [6]: 3.8 nM

B4: VHH-A10 (VHH)
VHH: DVQLRASGGGLVQPGGSLRLSCAASGFTFSNYAMYWLRQAPGKGIEWVSRIGPGGSHTEYADSVKGRFTISRDNAKNTLSLQMNSLKPEDTAVYYCAITQQGSGRGQETQVTVSSAAALEHHHHHH
notes: Alpaca VHH with C-terminal His tag, expressed in the E. coli periplasm from pET22; also called anti-GFAP VHH-A10; VHH-His
Kd [5]: 3.1 nM | binding result [4]: binds

Other lines, results leading:

binding result [1]: binds | binding result [2]: binds
B1: VHH domain of SEQ ID NO: 3 fused in frame with the Ig CH2 domain and the His tag (VHH)
chain: DVQLRASGGGLVQPGGSLRLSCAASGFTFSNYAMYWLRQAPGKGIEWVSRIGPGGSHTEYADSVKGRFTISRDNAKNTLSLQMNSLKPEDTAVYYCAITQQGSGRGQETQVTVSSAAAAPELLGGPSVFIFPPKPKDVLSISGRPEVTCVVVDVGQEDPEVSFNWYIDGAEVRTANTRPKEEQFNSTYRVVSVLPIQHQDWLTGKEFKCKVNNKALPAPIEKTISKAKLEHHHHHH
notes: the sentence could be read otherwise; also called VHH-A10 fused with the CH2 domain

Kd [7]: 12 nM | fold reduction of affinity against native VHH-E9 [7]: 2 fold
B5: VHH-E9 SS-free (VHH)
VHH: B4 VHH with R5Q, A6V, L11S, C22S, C96S, E108G
notes: also called cysteine-free derivative of VHH E9

binding result [4]: binds
B6: VHH-E3 (VHH)
VHH: B3 VHH with S25P, T69A, V93A, Q107R
notes: Alpaca VHH with C-terminal His tag; also called anti-GFAP VHH-E3
